B1: Anti-HER-2 DARPin CAR (CD28-based CAR) (other)
chain: MSRGSDLGKKLLEAARAGQDDEVRILMANGADVNAKDEYGLTPLYLATAHGHLEIVEVLLKNGADVNAVDAIGFTPLHLAAFIGHLEIAEVLLKHGADVNAQDKFGKTAFDISIGNGNEDLAEILQKLN
notes: Expressed on the surface of engineered human T cells; also called conventional CAR with the same DARPin; anti-HER-2 DARPin CD28-based CAR; not shown: rest of the CD28-based CAR (hinge, transmembrane and signalling domains)
B2: Anti-HER-2 DARPin Tri-TAC (full-length Trifunctional T cell-antigen coupler, configuration 1) (other)
chain: MSRGSDLGKKLLEAARAGQDDEVRILMANGADVNAKDEYGLTPLYLATAHGHLEIVEVLLKNGADVNAVDAIGFTPLHLAAFIGHLEIAEVLLKHGADVNAQDKFGKTAFDISIGNGNEDLAEILQKLNEQKLISEEDLNPGGGGGSGGGGSGGGGSGGGGSGSMDIQMTQTTSSLSASLGDRVTISCRASQDIRNYLNWYQQKPDGTVKLLIYYTSRLHSGVPSKFSGSGSGTDYSLTISNLEQEDIATYFCQQGNTLPWTFAGGTKLEIKGGGGSGGGGSGGGGSGGGGSEVQLQQSGPELVKPGASMKISCKASGYSFTGYTMNWVKQSHGKNLEWMGLINPYKGVSTYNQKFKDKATLTVDKSSSTAYMELLSLTSEDSAVYYCARSGYYGDSDWYFDVWGQGTTLTVFSTSGGGGSLESGQVLLESNIKVLPTWSTPVQPMALIVLGGVAGLLLFIGLGIFFCVRCRHRRRQAERMSQIKRLLSEKKTCQCPHRFQKTCSPI
notes: also called N-Darpin Tri TAC; full length Tri-TAC
B3: Tri-TAC variant that lacked the cytosolic domain that interacts with Lck (other)
chain: MSRGSDLGKKLLEAARAGQDDEVRILMANGADVNAKDEYGLTPLYLATAHGHLEIVEVLLKNGADVNAVDAIGFTPLHLAAFIGHLEIAEVLLKHGADVNAQDKFGKTAFDISIGNGNEDLAEILQKLNEQKLISEEDLNPGGGGGSGGGGSGGGGSGGGGSGSMDIQMTQTTSSLSASLGDRVTISCRASQDIRNYLNWYQQKPDGTVKLLIYYTSRLHSGVPSKFSGSGSGTDYSLTISNLEQEDIATYFCQQGNTLPWTFAGGTKLEIKGGGGSGGGGSGGGGSGGGGSEVQLQQSGPELVKPGASMKISCKASGYSFTGYTMNWVKQSHGKNLEWMGLINPYKGVSTYNQKFKDKATLTVDKSSSTAYMELLSLTSEDSAVYYCARSGYYGDSDWYFDVWGQGTTLTVFSTSGGGGSLESGQVLLESNIKVLPTWSTPVQPMALIVLGGVAGLLLFIGLGIFF
notes: Expressed in 293TM cells; also called cytosolic deletion; TAC without cytosolic domain

Assays:
recombinant HER-2 = target: T1, recombinant HER-2 (UniProt P04626 23-652, limits assumed); test: flow cytometry of engineered T cells stained with recombinant HER-2
T1 construct: also called recombinant HER-2 protein; HER-2 (erbB-2)
Experimental: The chimeric receptors were detected by incubation with recombinant HER-2. The Anti-HER-2 DARPin Tri-TAC was expressed well on the surface of the engineered T cells. However, its maximal surface expression was lower compared to the Anti-HER-2 DARPin CAR construct. […] T cells were activated with anti-CD3/anti-CD28 Dynabeads and engineered with lentiviruses encoding the Tri-TAC, CAR or no receptor (control). After 2 weeks, the CAR and control cultures had grown to similar numbers while the Tri-TAC cultures grew slightly more slowly.

β-Actin = β-Actin (UniProt P60709 1-375); test: immunoprecipitation of the Tri-TAC with recombinant HER-2 beads from 293TM cells, Western blot
Experimental: (§1) FIG. 5 illustrates Lck interaction with the Tri-TAC. In FIG. 5A, 293TM cells were engineered to express Lck in combination with either the full-length Tri-TAC or a Tri-TAC variant that lacked the cytosolic domain that interacts with Lck. The Tri-TAC receptors were immunoprecipitated with beads carrying recombinant HER-2 protein. The precipitated Tri-TAC was measured by Western blot with an antibody against the myc tag. Co-precipitated Lck was identified by Western blot with an antibody against Lck. β-Actin was not pulled down and only detected in the supernatant (S). Both full length Tri-TAC and the Tri-TAC that lacked the cytosolic domain were efficiently pulled down and detected in the bound fraction (B). […] Greater amounts of Lck were co-immunopreciptated with the full-length Tri-TAC relative to the controls. […] Signal was corrected relative to the negative control.

Lck = target: T2, Lck (UniProt P06239 1-509, limits assumed); test: co-immunoprecipitation with recombinant HER-2 beads from 293TM cells, Western blot for Lck
T2 construct: also called protein kinase Lck
T2 sequence (P06239 whole entry): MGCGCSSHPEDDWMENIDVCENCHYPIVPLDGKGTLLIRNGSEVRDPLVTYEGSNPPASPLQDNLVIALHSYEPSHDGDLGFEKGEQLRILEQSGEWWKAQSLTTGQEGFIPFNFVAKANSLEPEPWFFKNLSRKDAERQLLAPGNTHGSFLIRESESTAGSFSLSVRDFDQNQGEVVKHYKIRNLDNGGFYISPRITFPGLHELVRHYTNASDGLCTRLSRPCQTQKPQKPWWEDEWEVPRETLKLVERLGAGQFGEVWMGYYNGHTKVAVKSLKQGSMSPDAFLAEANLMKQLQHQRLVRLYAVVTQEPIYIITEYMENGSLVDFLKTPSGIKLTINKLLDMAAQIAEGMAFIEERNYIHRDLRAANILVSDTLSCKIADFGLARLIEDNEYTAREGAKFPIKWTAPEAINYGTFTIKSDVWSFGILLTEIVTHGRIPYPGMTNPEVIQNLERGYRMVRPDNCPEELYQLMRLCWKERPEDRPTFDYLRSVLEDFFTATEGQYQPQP
Experimental: as §1

| Binder | binding result (recombinant HER-2) | binding result (β-Actin) | binding result (Lck) |
| --- | --- | --- | --- |
| B1 | binds |  |  |
| B2 | binds | no binding |  |
| B3 |  | no binding | no binding |
